US20110076265A1 (POMONA RICERCA S R L, published 2011)

Biological target: T1, HA protein (H1-subtype hemagglutinin) of influenza A virus A/California/04/2009 (influenza A virus A/California/04/2009 …, UniProt P26140 18-566)
T1 construct: also called H1 HA (A/California/04/2009)
Test: FACS on fixed HEK 293T cells transfected with HA construct, Fab49 at 10 µg/ml

B1: Fab49 (human monoclonal Fab fragment produced by bacterial clone INF49) (Fab, V domains shown)
VH: LESGGGLVQPGGSLRLSCAASGITFSSYAMSWVRQAPGKGLEWVSTVNSGGGSTYYGDSVRGRFTISRDNSKSTLYLQLNSLRAEDTAIYYCAKDKGRPIFGLVTPSYYMDVWGNGT
VL: ELTQSPSSLSASVGDSVTITCRTSERISTYLNWYQQKPGKAPRLLVSGASTLQGGVPSRFSGSGSGTAFTLTINSLQPEDFATYYCQQSYSTPLTFGGGT
- binding result: binds
